According to patent US20050112748A1 (published 2005):

Target: T1, N-terminal portion of N-WASP (1st to 275th amino acid residues) fused to the Gal4 activation domain (pACT2) (UniProt Q95107 1-275)
T1 construct: range 1-275; Yeast two-hybrid prey; also called CRIB-motif-containing N-terminal portion of N-WASP; N-WASP CRIB motif
Assay: yeast two-hybrid, beta-galactosidase colony-lift filter assay
Excerpt: The cDNAs encoding the wild-type, constitutively active, and dominant-negative mutants of Cdc42, Tc10, and RhoT were ligated to the Gal4 DNA-binding domain of the pGBT9 vector (Clontech). A cDNA fragment encoding the N-terminal portion of N-WASP (corresponding to 1st to 275th amino acid residues) (EMBO J. 15: 5326-5335 (1996), Nature 391: 93-96 (1998)) was fused to the Gal4 activation domain of pACT2 vector (Clontech) The yeast strain Y190 was sequentially transformed with the bait and prey plasmids. Double transformants were selected on plates of minimal synthetic dropout medium lacking leucine and tryptophan (SD/-Leu/-Trp). The activation of lacz reporter gene was analyzed by β-galactosidase colony-lift filter assay.
Cdc42 generates filopodia through binding to the CRIB motif (J. Biol. Chem. 270: 29071-29074 (1995)) of its target protein N-WASP, which activates Arp2/3-complex- and profilin-mediated actin polymerization (EMBO J. 15: 5326-5335 (1996), Nature 391: 93-96 (1998), Cell 97: 221-231 (1999)). To determine whether Tc10 and RhoT also bound to N-WASP, the yeast two-hybrid interaction assay was performed.

T1 sequence (Q95107 1-275 limits assumed): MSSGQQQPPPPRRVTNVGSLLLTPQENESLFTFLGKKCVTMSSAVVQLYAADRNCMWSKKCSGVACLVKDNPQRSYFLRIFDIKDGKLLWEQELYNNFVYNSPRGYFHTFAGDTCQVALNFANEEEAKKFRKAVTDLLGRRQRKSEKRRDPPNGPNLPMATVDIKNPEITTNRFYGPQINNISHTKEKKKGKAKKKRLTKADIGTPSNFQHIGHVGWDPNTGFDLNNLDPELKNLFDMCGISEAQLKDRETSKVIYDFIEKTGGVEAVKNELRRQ

B1: Dominant-negative mouse RhoT(T35N) fused to the Gal4 DNA-binding domain (pGBT9) (enzyme, not shown: small tags and cut ends)
chain: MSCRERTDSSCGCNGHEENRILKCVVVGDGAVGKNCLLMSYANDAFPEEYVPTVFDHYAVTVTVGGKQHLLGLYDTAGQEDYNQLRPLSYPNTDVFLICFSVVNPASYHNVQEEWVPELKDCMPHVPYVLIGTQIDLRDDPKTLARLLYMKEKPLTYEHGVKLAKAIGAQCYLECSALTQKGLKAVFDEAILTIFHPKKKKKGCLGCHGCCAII
notes: Yeast two-hybrid bait; also called RhoT(T3SN); RhoT DN
- binding result: no binding
